Series [1] concerns the target phytochrome-associated protein phosphatase 5 from Arabidopsis thaliana (AtPAPP5), isoform 2, 1-484, affinity tag removed, labelled with a green maleimide dye (Arabidopsis thaliana) (UniProt Q84XU2). Put plainly: MST; labelled AtPAPP5 at 50 nM, AtPhyB(1-651) variant titrated (S86D 4 nM to 70 uM, S84D 2 nM to 29 uM); 100 uM arachidonic acid (AA) added, 15 min incubation; 25 °C; premium coated capillaries; 1:1 binding model; apparent KD; phytochrome in photodynamical equilibrium with prevalence of Pfr.

The conditions of series [2]: phosphorylation at S86.

Entries after “also recorded” stand apart in the source; their conditions may differ.

Sequence of UniProt Q84XU2 (Q84XU2 other isoform, or with tags, fused parts or gaps): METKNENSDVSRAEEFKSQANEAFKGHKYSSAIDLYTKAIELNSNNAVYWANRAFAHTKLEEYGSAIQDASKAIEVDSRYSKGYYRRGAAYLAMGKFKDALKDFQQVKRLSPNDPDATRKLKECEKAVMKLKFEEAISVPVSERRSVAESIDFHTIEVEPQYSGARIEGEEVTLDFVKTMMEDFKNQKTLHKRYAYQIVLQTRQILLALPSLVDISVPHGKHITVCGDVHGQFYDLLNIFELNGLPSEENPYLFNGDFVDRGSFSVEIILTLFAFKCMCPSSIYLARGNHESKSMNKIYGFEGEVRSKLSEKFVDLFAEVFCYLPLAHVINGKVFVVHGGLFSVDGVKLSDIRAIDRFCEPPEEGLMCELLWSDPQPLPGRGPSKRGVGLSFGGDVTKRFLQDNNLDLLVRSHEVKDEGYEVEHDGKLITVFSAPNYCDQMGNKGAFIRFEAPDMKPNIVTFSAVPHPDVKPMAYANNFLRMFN

As for “AtPhyB(1-651) S84D, phosphomimetic variant of the photosensory module of Arabidopsis thaliana phytochrome B (domain or fragment)”, the Kd in series [1] is 1.3 µM.

Take “AtPhyB(1-651) S86D, phosphomimetic variant of the photosensory module of Arabidopsis thaliana phytochrome B (domain or fragment)”: in series [1], the Kd is 1.8 µM.

“phytochrome B (AtPhyB): S86D phosphomimetic”: the other entry in series [2] is recorded as “increases, dark conversion t1/2 40 min vs 270 min for wild type; also recorded: changes, 5 nm bathochromic shift of the Pfr absorption maximum”.
